This is an account of results in publication PMC4931317, “UtpA and UtpB chaperone nascent pre-ribosomal RNA and U3 snoRNA to initiate eukaryotic ribosome assembly” (Nature Communications, 2016).

The target in assay [1] is T1, Utp10-3C-GFP (S. cerevisiae, UniProt P42945 1-1769).
T1 construct: Utp10, S. cerevisiae, subunit of UtpA (200 kDa); GFP is joined through a 3C protease site; it holds the protein on the beads in a1-a3 and is cleaved off by 3C on elution, so it is absent in the SEC step and in the DSS cross-linking (a6); also called Utp10-GFP; Utp10-sbp-H14-3C-GFP; source: S. cerevisiae YSK32, C-terminal tag integrated in the genome, endogenous level; captured from lysate on …
T1 sequence (P42945 whole entry): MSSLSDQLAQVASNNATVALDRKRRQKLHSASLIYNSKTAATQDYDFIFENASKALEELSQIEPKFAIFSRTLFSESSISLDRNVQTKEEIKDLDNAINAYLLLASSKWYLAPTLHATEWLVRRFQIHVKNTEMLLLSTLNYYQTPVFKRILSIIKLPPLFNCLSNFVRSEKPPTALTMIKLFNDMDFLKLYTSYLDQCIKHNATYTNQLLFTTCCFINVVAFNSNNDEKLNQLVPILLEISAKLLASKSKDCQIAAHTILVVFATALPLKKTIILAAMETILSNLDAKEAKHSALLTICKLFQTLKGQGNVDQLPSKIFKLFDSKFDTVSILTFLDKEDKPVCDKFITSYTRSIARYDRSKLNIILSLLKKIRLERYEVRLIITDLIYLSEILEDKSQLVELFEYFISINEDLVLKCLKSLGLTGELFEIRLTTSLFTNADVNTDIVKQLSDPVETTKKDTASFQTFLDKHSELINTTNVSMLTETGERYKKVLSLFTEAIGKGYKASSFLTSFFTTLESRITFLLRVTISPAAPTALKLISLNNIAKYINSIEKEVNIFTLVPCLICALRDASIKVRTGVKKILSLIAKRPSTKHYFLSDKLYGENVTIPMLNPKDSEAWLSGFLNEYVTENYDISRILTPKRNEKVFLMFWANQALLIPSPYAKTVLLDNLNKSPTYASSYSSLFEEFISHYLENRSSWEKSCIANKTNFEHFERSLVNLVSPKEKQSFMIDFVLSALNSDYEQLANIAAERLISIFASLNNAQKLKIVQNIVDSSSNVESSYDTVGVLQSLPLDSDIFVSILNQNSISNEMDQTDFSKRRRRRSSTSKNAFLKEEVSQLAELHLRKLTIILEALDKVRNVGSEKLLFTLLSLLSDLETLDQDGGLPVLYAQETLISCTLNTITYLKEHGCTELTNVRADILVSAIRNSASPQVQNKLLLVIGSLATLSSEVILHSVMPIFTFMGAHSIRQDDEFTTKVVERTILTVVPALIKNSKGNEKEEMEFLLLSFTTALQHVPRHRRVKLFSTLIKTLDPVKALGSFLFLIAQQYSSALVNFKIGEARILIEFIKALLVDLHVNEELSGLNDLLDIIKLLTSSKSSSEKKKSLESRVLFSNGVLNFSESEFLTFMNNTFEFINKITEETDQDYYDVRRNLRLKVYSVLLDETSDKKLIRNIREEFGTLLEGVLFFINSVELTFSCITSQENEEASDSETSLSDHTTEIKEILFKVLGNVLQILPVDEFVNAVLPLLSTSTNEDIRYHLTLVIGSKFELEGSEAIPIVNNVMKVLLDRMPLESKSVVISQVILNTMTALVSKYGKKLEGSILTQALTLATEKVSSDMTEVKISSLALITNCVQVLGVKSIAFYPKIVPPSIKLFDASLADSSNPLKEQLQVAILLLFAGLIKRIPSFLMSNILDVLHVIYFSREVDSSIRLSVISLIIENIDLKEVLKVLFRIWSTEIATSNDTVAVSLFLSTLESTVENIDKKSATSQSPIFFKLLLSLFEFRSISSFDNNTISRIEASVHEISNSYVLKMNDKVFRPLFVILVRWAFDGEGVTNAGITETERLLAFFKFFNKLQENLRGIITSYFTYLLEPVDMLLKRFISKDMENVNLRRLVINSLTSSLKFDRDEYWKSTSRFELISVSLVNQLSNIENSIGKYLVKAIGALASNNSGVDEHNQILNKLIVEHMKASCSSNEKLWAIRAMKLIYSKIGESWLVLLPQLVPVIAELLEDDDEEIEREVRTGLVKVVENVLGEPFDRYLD
Description: cross-linking; DSS (0.2 mM, H12/D12) cross-linking of SEC-purified endogenous UtpA, 25 °C, 30 min, 50 mM HEPES-NaOH pH 7.6, 200 mM NaCl, 1 mM EDTA; cross-linked peptides found by mass spectrometry (pLink). Particulars: both partners purified.

The target in the next assay is T2, Utp4 (S. cerevisiae, UniProt Q06679 1-776).
T2 construct: Utp4, S. cerevisiae, subunit of UtpA; No tag is named for it in either strain; strains are in Supplementary Data 1; source: endogenous, S. cerevisiae YSK32, co-purified with Utp10-GFP; overexpressed (galactose promoter) in S. cerevisiae YSK122, co-purified with Utp15-mCherry
T2 sequence (looked up): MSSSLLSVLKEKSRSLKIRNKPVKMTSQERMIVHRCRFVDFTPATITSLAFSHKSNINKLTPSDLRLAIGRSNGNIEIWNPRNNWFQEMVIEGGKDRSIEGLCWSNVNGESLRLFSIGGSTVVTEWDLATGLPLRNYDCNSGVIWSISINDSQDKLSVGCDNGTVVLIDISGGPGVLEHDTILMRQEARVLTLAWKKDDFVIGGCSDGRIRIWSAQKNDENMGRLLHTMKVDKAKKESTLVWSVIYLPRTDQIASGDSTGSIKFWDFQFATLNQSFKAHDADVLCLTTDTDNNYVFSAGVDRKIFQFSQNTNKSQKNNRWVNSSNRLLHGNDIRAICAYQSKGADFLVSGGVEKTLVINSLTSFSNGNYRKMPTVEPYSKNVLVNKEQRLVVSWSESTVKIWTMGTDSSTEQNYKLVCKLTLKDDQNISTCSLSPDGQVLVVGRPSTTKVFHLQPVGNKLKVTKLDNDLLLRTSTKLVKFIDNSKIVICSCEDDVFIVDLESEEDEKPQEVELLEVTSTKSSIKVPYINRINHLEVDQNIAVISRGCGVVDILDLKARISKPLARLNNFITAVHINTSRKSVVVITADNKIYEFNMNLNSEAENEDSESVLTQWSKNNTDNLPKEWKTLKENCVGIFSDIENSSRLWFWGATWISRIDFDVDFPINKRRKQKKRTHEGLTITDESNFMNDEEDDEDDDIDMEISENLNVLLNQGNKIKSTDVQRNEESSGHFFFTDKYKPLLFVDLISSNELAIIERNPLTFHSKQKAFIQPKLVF
The description is as above. Particulars: both partners purified.

Assay [2] addresses T1, Utp10-3C-GFP. Description: pull-down + SEC; endogenous UtpA from YSK32 lysate captured via Utp10-GFP on anti-GFP nanobody sepharose; 50 mM HEPES-NaOH pH 7.6, 200 mM NaCl, 1 mM EDTA, 4 °C; eluted with TEV and 3C protease; Superose 6; peak fraction on Coomassie-stained SDS-PAGE. Particulars: partners not purified.

B1: Utp8 (natural protein, S. cerevisiae, UniProt P53276 1-713, looked up)
chain: MPSLSQPFRLATLPKIASLSNFSLQADYVQVADGTFNESTNNITLGISGSSISQYIINPTPKLTFDYPIPSTNIITACNAEKGQANIDGNIEASTDDEANNEKTINTQKKRNVEIWAFGLMVNKGNYTLNVITKALEDTTDTSNDHLSESDIDNKAYTGSDEFLSQYKIKAKAKVMSIKIDTKNSLVIAILQNGLIEIFDFKLTLLHSFDISYDNLKYAKWFTENGTEYVFVLCPLQDDKVCYKLLELTDCGSGESSPIKELSSTIIEGFSFENSKLCYQFGKLYKLNQGKIYIYSLPHCQLQQVIEFPMVDKLSPGDDLISFQPVSVNRVLLTVNNVIYLLDLLHCSTLSQRELTHVKTFQLLKSAVINSEKSHNSKTIAIGISTKNGPNPTSSLEIINIDVGTNTLKDSLGKSFQVGNNDSSVILKPLFDDKDINDKRVKCNDVSGDSSVPVLHCNEVIEKLSALQDNDITSFDDIFFKELKIKEEHYTEKDRYISDPGFLNKVLDLIFGKFSGNDYPKTLTFLLTHPLFPLSRTRNLLSLLRDQPRLFKQAIVTCPNLPLNELLEELFSIRNRELLLDISFRILQDFTRDSIKQEMKKLSKLDVQNFIEFITSGGEDSSPECFNPSQSTQLFQLLSLVLDSIGLFSLEGALLENLTLYIDKQVEIAERNTELWNLIDTKGFQHGFASSTFDNGTSQKRALPTYTMEYLDI
notes: Utp8, S. cerevisiae, subunit of UtpA; No tag is named for it in either strain; strains are in Supplementary Data 1; source: endogenous, S. cerevisiae YSK32, co-purified with Utp10-GFP; overexpressed (galactose promoter) in S. cerevisiae YSK122, co-purified with Utp15-mCherry
Take B1: the binding result with Utp10-3C-GFP [1] and in the assay with Utp4 was “binds” in each case.

B2: Utp5 (natural protein, S. cerevisiae, UniProt Q04177 1-643, looked up)
chain: MDSPVLQSAYDPSGQYLCYVTVALDKQRVGVQPTQRATSSGVDTVWNENFLYLEDSKLKVTCLKWVNLASSDTVAIILGMNNGEIWLYSVLANEVTYKFTTGNSYEIKDIDLMGNQLWCIDSSDAFYQFDLLQFKLLQHFRINNCVQLNKLTIVPAGDSVAQLLVASHSISLIDIEEKKVVMTFPGHVSPVSTLQVITNEFFISGAEGDRFLNVYDIHSGMTKCVLVAESDIKELSHSGQADSIAVTTEDGSLEIFVDPLVSSSTKKRGNKSKKSSKKIQIVSKDGRKVPIYNAFINKDLLNVSWLQNATMPYFKNLQWREIPNEYTVEISLNWNNKNKSADRDLHGKDLASATNYVEGNARVTSGDNFKHVDDAIKSWERELTSLEQEQAKPPQANELLTETFGDKLESSTVARISGKKTNLKGSNLKTATTTGTVTVILSQALQSNDHSLLETVLNNRDERVIRDTIFRLKPALAVILLERLAERIARQTHRQGPLNVWVKWCLIIHGGYLVSIPNLMSTLSSLHSTLKRRSDLLPRLLALDARLDCTINKFKTLNYEAGDIHSSEPVVEEDEDDVEYNEELDDAGLIEDGEESYGSEEEEEGDSDNEEEQKHTSSKQDGRLETEQSDGEEEAGYSDVEME
notes: Utp5, S. cerevisiae, subunit of UtpA; No tag is named for it in either strain; strains are in Supplementary Data 1; source: endogenous, S. cerevisiae YSK32, co-purified with Utp10-GFP; overexpressed (galactose promoter) in S. cerevisiae YSK122, co-purified with Utp15-mCherry
Regarding B2, in the assay with Utp10-3C-GFP [2], the binding result is “binds”.
